IntAct's records for PubMed 34029587

Assays:
G3BP1 = G3BP1 (UniProt Q13283)
anm1_human PRMT1 = anm1_human PRMT1 (UniProt Q99873)
Sequence of UniProt Q99873 (Q99873 whole entry, looked up): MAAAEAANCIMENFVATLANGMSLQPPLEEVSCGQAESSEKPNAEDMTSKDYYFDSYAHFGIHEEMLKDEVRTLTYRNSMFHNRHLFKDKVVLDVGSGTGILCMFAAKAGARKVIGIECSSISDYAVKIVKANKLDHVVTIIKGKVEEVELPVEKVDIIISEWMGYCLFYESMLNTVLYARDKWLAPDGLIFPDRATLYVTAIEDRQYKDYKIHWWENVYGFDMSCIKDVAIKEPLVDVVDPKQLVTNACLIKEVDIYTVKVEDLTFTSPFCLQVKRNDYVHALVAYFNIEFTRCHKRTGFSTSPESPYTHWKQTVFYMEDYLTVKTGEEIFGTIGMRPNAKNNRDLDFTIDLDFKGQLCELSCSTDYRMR

Sequence of UniProt Q13283 (Q13283 whole entry, looked up): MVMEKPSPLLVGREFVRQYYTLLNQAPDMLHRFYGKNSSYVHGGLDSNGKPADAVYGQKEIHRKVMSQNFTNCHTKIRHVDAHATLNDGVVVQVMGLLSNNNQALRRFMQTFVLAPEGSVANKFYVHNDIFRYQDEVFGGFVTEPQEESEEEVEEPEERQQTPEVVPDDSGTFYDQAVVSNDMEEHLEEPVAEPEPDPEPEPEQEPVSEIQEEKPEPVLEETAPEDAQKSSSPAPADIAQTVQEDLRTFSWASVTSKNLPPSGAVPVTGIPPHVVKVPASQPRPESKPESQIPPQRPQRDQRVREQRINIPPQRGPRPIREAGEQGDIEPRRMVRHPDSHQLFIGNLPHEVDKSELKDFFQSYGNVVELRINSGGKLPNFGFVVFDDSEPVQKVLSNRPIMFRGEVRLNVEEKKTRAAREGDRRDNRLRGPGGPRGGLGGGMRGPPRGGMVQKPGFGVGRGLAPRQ

Substance | effect of a mutation on the interaction (G3BP1) | effect of a mutation on the interaction (anm1_human PRMT1)
Nucleoprotein (SARS-CoV-2) (from UniProt P0DTC9) R177K | with no effect | 
Nucleoprotein (SARS-CoV-2) (from UniProt P0DTC9) R203K |  | with no effect
Nucleoprotein (SARS-CoV-2) (from UniProt P0DTC9) R68K |  | with no effect
